Measurements published in patent publication US20250352667A1.

Key:
[1] = biological target: KEAP1 (wild-type full-length), His-tagged (human) (UniProt Q14145); experiment: AlphaScreen; 38.4 nM FLAG-NRF2, 150 nM His-KEAP1; Rep 2; control for I28V
[2] = biological target: KEAP1 (wild-type full-length), His-tagged (human) (UniProt Q14145); experiment: AlphaScreen; 76.8 nM FLAG-NRF2, 150 nM His-KEAP1; Rep 2; control for I28V
[3] = biological target: KEAP1 (wild-type full-length), His-tagged (human) (UniProt Q14145); experiment: AlphaScreen; 38.4 nM FLAG-NRF2, 150 nM His-KEAP1; Repeat 1 (same value as in Table 26)
[4] = biological target: KEAP1 (wild-type full-length), His-tagged (human) (UniProt Q14145); experiment: AlphaScreen; NRF2 wt isoform 1 38.4 nM, KEAP1 150 nM; set as the 100 % reference for I86V
[5] = biological target: KEAP1 (wild-type full-length), His-tagged (human) (UniProt Q14145); experiment: AlphaScreen; 76.8 nM FLAG-NRF2, 150 nM His-KEAP1; signal against NRF2 only; control for I28V
[6] = biological target: KEAP1 (wild-type full-length), His-tagged (human) (UniProt Q14145); experiment: AlphaScreen; 38.4 nM FLAG-NRF2, 150 nM His-KEAP1; signal against NRF2 only; control for I86V
[7] = biological target: KEAP1 (wild-type full-length), His-tagged (human) (UniProt Q14145); experiment: AlphaScreen; 614.4 nM FLAG-NRF2, 150 nM His-KEAP1; signal against NRF2 only; control for I86V
[8] = biological target: KEAP1 (wild-type full-length), His-tagged (human) (UniProt Q14145); experiment: AlphaScreen; FLAG-NRF2 wt isoform 1 4.8 nM, His-KEAP1 150 nM; Rep 2; positive control for Q75R
[9] = biological target: KEAP1 (wild-type full-length), His-tagged (human) (UniProt Q14145); experiment: AlphaScreen; FLAG-NRF2 wt isoform 1 19.2 nM, His-KEAP1 150 nM; Rep 3; positive control for I86V
[10] = biological target: KEAP1 (wild-type full-length), His-tagged (human) (UniProt Q14145); experiment: AlphaScreen; FLAG-NRF2 wt isoform 1 38.4 nM, His-KEAP1 150 nM; Rep 1; positive control for I86V
[11] = biological target: KEAP1 (wild-type full-length), His-tagged (human) (UniProt Q14145); experiment: AlphaScreen; FLAG-NRF2 wt isoform 1 38.4 nM, His-KEAP1 150 nM; Rep 2; positive control for I86V
[12] = biological target: KEAP1 (wild-type full-length), His-tagged (human) (UniProt Q14145); experiment: AlphaScreen; FLAG-NRF2 wt isoform 1 76.8 nM, His-KEAP1 150 nM; Rep 1; positive control for Q75R
[13] = biological target: KEAP1 (wild-type full-length), His-tagged (human) (UniProt Q14145); experiment: AlphaScreen; FLAG-NRF2 wt isoform 1 153.6 nM, His-KEAP1 150 nM; Rep 1; positive control for Q75R
[14] = biological target: KEAP1 (wild-type full-length), His-tagged (human) (UniProt Q14145); experiment: AlphaScreen; FLAG-NRF2 wt isoform 1 9.6 nM, His-KEAP1 150 nM; Repeat 2; positive control for Q75R
[15] = biological target: KEAP1 (wild-type full-length), His-tagged (human) (UniProt Q14145); experiment: AlphaScreen; NRF2 wt isoform 1 38.4 nM, KEAP1 150 nM; signal against NRF2-only control; control for Q75R
[16] = biological target: KEAP1 (wild-type full-length), His-tagged (human) (UniProt Q14145); experiment: AlphaScreen; NRF2 wt isoform 1 614.4 nM, KEAP1 150 nM; signal against NRF2-only control; control for Q75R
[17] = biological target: KEAP1 (wild-type full-length), His-tagged (human) (UniProt Q14145); experiment: AlphaScreen; 2.4 nM FLAG-NRF2, 150 nM His-KEAP1; signal against NRF2 only
[18] = biological target: KEAP1 (wild-type full-length), His-tagged (human) (UniProt Q14145); experiment: AlphaScreen; 38.4 nM FLAG-NRF2, 150 nM His-KEAP1; signal against NRF2 only
[19] = biological target: KEAP1 (wild-type full-length), His-tagged (human) (UniProt Q14145); experiment: AlphaScreen; 76.8 nM FLAG-NRF2, 150 nM His-KEAP1; signal against NRF2 only
[20] = biological target: KEAP1 (wild-type full-length), His-tagged (human) (UniProt Q14145); experiment: AlphaScreen; FLAG-NRF2 Q75R 2.4 nM, His-KEAP1 150 nM; Rep 1
[21] = biological target: KEAP1 (wild-type full-length), His-tagged (human) (UniProt Q14145); experiment: AlphaScreen; FLAG-NRF2 Q75R 614.4 nM, His-KEAP1 150 nM; Rep 1
[22] = biological target: KEAP1 (wild-type full-length), His-tagged (human) (UniProt Q14145); experiment: AlphaScreen; NRF2 Q75R 9.6 nM, KEAP1 150 nM; signal against NRF2-only control
[23] = biological target: KEAP1 (wild-type full-length), His-tagged (human) (UniProt Q14145); experiment: AlphaScreen; NRF2 Q75R 153.6 nM, KEAP1 150 nM; signal against NRF2-only control
[24] = biological target: KEAP1 (wild-type full-length), His-tagged (human) (UniProt Q14145); experiment: AlphaScreen; NRF2 Q75R 614.4 nM, KEAP1 150 nM; signal against NRF2-only control
[25] = biological target: KEAP1 (wild-type full-length), His-tagged (human) (UniProt Q14145); experiment: AlphaScreen; FLAG-NRF2 I86V 38.4 nM, His-KEAP1 150 nM; Rep 2
[26] = biological target: KEAP1 (wild-type full-length), His-tagged (human) (UniProt Q14145); experiment: AlphaScreen; FLAG-NRF2 I86V 307.2 nM, His-KEAP1 150 nM; Rep 3
[27] = biological target: KEAP1 (wild-type full-length), His-tagged (human) (UniProt Q14145); experiment: AlphaScreen; NRF2 I86V 307.2 nM, KEAP1 150 nM; signal against NRF2-only control

Chain of KEAP1 (wild-type full-length), His-tagged (human) (Q14145 2-624 limits assumed): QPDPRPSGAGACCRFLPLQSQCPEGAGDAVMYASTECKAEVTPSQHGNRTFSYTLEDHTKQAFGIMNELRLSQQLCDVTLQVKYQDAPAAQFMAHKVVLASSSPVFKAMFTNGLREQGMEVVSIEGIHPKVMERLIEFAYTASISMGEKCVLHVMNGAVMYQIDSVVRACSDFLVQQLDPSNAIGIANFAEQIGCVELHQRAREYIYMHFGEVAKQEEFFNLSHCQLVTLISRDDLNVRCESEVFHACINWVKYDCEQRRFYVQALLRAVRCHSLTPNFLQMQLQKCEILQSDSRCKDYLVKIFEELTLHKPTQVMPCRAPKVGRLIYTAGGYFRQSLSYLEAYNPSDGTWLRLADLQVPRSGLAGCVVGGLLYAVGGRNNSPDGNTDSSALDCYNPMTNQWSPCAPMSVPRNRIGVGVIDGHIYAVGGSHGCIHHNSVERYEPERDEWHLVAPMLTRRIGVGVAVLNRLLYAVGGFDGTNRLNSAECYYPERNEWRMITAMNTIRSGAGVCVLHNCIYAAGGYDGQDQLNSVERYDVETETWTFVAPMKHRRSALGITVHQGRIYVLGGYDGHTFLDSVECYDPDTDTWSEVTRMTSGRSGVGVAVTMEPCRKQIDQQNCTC

B1: NRF2 isoform 1 (wild-type full-length), FLAG-tagged (protein)
chain: MMDLELPPPGLPSQQDMDLIDILWRQDIDLGVSREVFDFSQRRKEYELEKQKKLEKERQEQLQKEQEKAFFAQLQLDEETGEFLPIQPAQHIQSETSGSANYSQVAHIPKSDALYFDDCMQLLAQTFPFVDDNEVSSATFQSLVPDIPGHIESPVFIATNQAQSPETSVAQVAPVDLDGMQQDIEQVWEELLSIPELQCLNIENDKLVETTMVPSPEAKLTEVDNYHFYSSIPSMEKEVGNCSPHFLNAFEDSFSSILSTEDPNQLTVNSLNSDATVNTDFGDEFYSAFIAEPSISNSMPSPATLSHSLSELLNGPIDVSDLSLCKAFNQNHPESTAEFNDSDSGISLNTSPSVASPEHSVESSSYGDTLLGLSDSEVEELDSAPGSVKQNGPKTPVHSSGDMVQPLSPSQGQSTHVHDAQCENTPEKELPVSPGHRKTPFTKDKHSSRLEAHLTRDELRAKALHIPFPVEKIINLPVVDFNEMMSKEQFNEAQLALIRDIRRRGKNKVAAQNCRKRKLENIVELEQDLDHLKDEKEKLLKEKGENDKSLHLLKKQLSTLYLEVFSMLRDEDGKPYSPSEYSLQQTRDGNVFLVPKSKKPDVKKN
A-counts [1]: 1900 A-counts
A-counts [2]: 1970 A-counts
A-counts [3]: 2000 A-counts
Binding Percentage [4]: 100%
S/N [5]: 2.7
S/N [6]: 3
S/N [7]: 1.1
A-counts (NRF2 plus KEAP1) [8]: 754 A-counts
A-counts (NRF2 plus KEAP1) [9]: 3040 A-counts
A-counts (NRF2 plus KEAP1) [10]: 3100 A-counts
A-counts (NRF2 plus KEAP1) [11]: 2850 A-counts
A-counts (NRF2 plus KEAP1) [12]: 1490 A-counts
A-counts (NRF2 plus KEAP1) [13]: 1380 A-counts
A-counts (NRF2 plus KEAP1) [14]: 900 A-counts
S/N [15]: 2.8
S/N [16]: 1

B2: NRF2 isoform 1 (I28V full-length), FLAG-tagged (protein)
chain: MMDLELPPPGLPSQQDMDLIDILWRQDVDLGVSREVFDFSQRRKEYELEKQKKLEKERQEQLQKEQEKAFFAQLQLDEETGEFLPIQPAQHIQSETSGSANYSQVAHIPKSDALYFDDCMQLLAQTFPFVDDNEVSSATFQSLVPDIPGHIESPVFIATNQAQSPETSVAQVAPVDLDGMQQDIEQVWEELLSIPELQCLNIENDKLVETTMVPSPEAKLTEVDNYHFYSSIPSMEKEVGNCSPHFLNAFEDSFSSILSTEDPNQLTVNSLNSDATVNTDFGDEFYSAFIAEPSISNSMPSPATLSHSLSELLNGPIDVSDLSLCKAFNQNHPESTAEFNDSDSGISLNTSPSVASPEHSVESSSYGDTLLGLSDSEVEELDSAPGSVKQNGPKTPVHSSGDMVQPLSPSQGQSTHVHDAQCENTPEKELPVSPGHRKTPFTKDKHSSRLEAHLTRDELRAKALHIPFPVEKIINLPVVDFNEMMSKEQFNEAQLALIRDIRRRGKNKVAAQNCRKRKLENIVELEQDLDHLKDEKEKLLKEKGENDKSLHLLKKQLSTLYLEVFSMLRDEDGKPYSPSEYSLQQTRDGNVFLVPKSKKPDVKKN
S/N [17]: 2.2
S/N [18]: 2.7
S/N [19]: 2.2

B3: NRF2 isoform 1 (Q75R full-length), FLAG-tagged (protein)
chain: MMDLELPPPGLPSQQDMDLIDILWRQDIDLGVSREVFDFSQRRKEYELEKQKKLEKERQEQLQKEQEKAFFAQLRLDEETGEFLPIQPAQHIQSETSGSANYSQVAHIPKSDALYFDDCMQLLAQTFPFVDDNEVSSATFQSLVPDIPGHIESPVFIATNQAQSPETSVAQVAPVDLDGMQQDIEQVWEELLSIPELQCLNIENDKLVETTMVPSPEAKLTEVDNYHFYSSIPSMEKEVGNCSPHFLNAFEDSFSSILSTEDPNQLTVNSLNSDATVNTDFGDEFYSAFIAEPSISNSMPSPATLSHSLSELLNGPIDVSDLSLCKAFNQNHPESTAEFNDSDSGISLNTSPSVASPEHSVESSSYGDTLLGLSDSEVEELDSAPGSVKQNGPKTPVHSSGDMVQPLSPSQGQSTHVHDAQCENTPEKELPVSPGHRKTPFTKDKHSSRLEAHLTRDELRAKALHIPFPVEKIINLPVVDFNEMMSKEQFNEAQLALIRDIRRRGKNKVAAQNCRKRKLENIVELEQDLDHLKDEKEKLLKEKGENDKSLHLLKKQLSTLYLEVFSMLRDEDGKPYSPSEYSLQQTRDGNVFLVPKSKKPDVKKN
A-counts (NRF2 plus KEAP1) [20]: 588 A-counts
A-counts (NRF2 plus KEAP1) [21]: 855 A-counts
S/N [22]: 2.4
S/N [23]: 1.5
S/N [24]: 0.8

B4: NRF2 isoform 1 (I86V full-length), FLAG-tagged (protein)
chain: MMDLELPPPGLPSQQDMDLIDILWRQDIDLGVSREVFDFSQRRKEYELEKQKKLEKERQEQLQKEQEKAFFAQLQLDEETGEFLPVQPAQHIQSETSGSANYSQVAHIPKSDALYFDDCMQLLAQTFPFVDDNEVSSATFQSLVPDIPGHIESPVFIATNQAQSPETSVAQVAPVDLDGMQQDIEQVWEELLSIPELQCLNIENDKLVETTMVPSPEAKLTEVDNYHFYSSIPSMEKEVGNCSPHFLNAFEDSFSSILSTEDPNQLTVNSLNSDATVNTDFGDEFYSAFIAEPSISNSMPSPATLSHSLSELLNGPIDVSDLSLCKAFNQNHPESTAEFNDSDSGISLNTSPSVASPEHSVESSSYGDTLLGLSDSEVEELDSAPGSVKQNGPKTPVHSSGDMVQPLSPSQGQSTHVHDAQCENTPEKELPVSPGHRKTPFTKDKHSSRLEAHLTRDELRAKALHIPFPVEKIINLPVVDFNEMMSKEQFNEAQLALIRDIRRRGKNKVAAQNCRKRKLENIVELEQDLDHLKDEKEKLLKEKGENDKSLHLLKKQLSTLYLEVFSMLRDEDGKPYSPSEYSLQQTRDGNVFLVPKSKKPDVKKN
A-counts (NRF2 plus KEAP1) [25]: 2920 A-counts
A-counts (NRF2 plus KEAP1) [26]: 2140 A-counts
S/N [27]: 1.3
